# Source: paper PMC3678298, “Catalytic preference of Salmonella typhimurium LT2 sialidase for N-acetylneuraminic acid residues over N-glycolylneuraminic acid residues^” (FEBS Open Bio, 2013)
# Tested on: Cc1cc(=O)oc2cc(O[C@@]3(C(=O)O)C[C@H](O)[C@@H](NC(=O)CO)[C@H]([C@H](O)[C@H](O)CO)O3)ccc12
# Test: purified protein
# Settings: 80 mM sodium acetate pH 6.0, 80 mM NaCl, 0.8 mg/ml BSA, 37 °C, 10 mU/ml enzyme
# Excerpt: 4MU fluorescence; Lineweaver-Burk on STSA (Salmonella typhimurium LT2 sialidase)
substance,measurement,value
STSA (Salmonella typhimurium LT2 sialidase) (Salmonella enterica subsp. enterica serovar Typhimurium str. LT2),Km,3.10 mM
same,kcat,40 s⁻¹
same,kcat/Km,13100 M⁻¹ s⁻¹
